Reference: patent US20180346602A1

Experiments:
[1] = molecular target: anti-VEGF/ANG2 antibody (IgG1 subclass with mutations P329G/L234A/L235A/I253A/H310A/H435A) [IgG part: P01857]; assay: sandwich ELISA in serum; capture M1.3.17, tracer M1.7.24; anti-VEGF/ANG2 antibody 2500 ng/mL
[2] = molecular target: anti-VEGF/ANG2 antibody (IgG1 subclass with mutations P329G/L234A/L235A/I253A/H310A/H435A) [IgG part: P01857]; assay: sandwich ELISA in serum; capture M1.3.17, tracer M1.7.24; anti-VEGF/ANG2 antibody 312.5 ng/mL
[3] = molecular target: anti-VEGF/ANG2 antibody (IgG1 subclass with mutations P329G/L234A/L235A/I253A/H310A/H435A) [IgG part: P01857]; assay: sandwich ELISA in serum; capture M1.3.17, tracer M1.7.24; anti-VEGF/ANG2 antibody 156.25 ng/mL
[4] = molecular target: anti-VEGF/ANG2 antibody (IgG1 subclass with mutations P329G/L234A/L235A/I253A/H310A/H435A) [IgG part: P01857]; assay: sandwich ELISA in serum; capture M1.3.17, tracer M1.7.24; anti-VEGF/ANG2 antibody 78.125 ng/mL
[5] = molecular target: anti-VEGF/ANG2 antibody (IgG1 subclass with mutations P329G/L234A/L235A/I253A/H310A/H435A) [IgG part: P01857]; assay: bridging ELISA; biotinylated and digoxigenylated anti-VEGF/ANG2 antibody bridged by M1.3.17 at 250 ng/mL
[6] = molecular target: anti-VEGF/ANG2 antibody (IgG1 subclass with mutations P329G/L234A/L235A/I253A/H310A/H435A) [IgG part: P01857]; assay: bridging ELISA; biotinylated and digoxigenylated anti-VEGF/ANG2 antibody bridged by M1.3.17 at 7.8125 ng/mL
[7] = molecular target: anti-VEGF/ANG2 antibody (IgG1 subclass with mutations P329G/L234A/L235A/I253A/H310A/H435A) [IgG part: P01857]; assay: bridging ELISA; biotinylated and digoxigenylated anti-VEGF/ANG2 antibody bridged by M1.3.17 at 3.90625 ng/mL
[8] = molecular target: anti-VEGF/ANG2 antibody (IgG1 subclass with mutations P329G/L234A/L235A/I253A/H310A/H435A) (human) [IgG part: P01857]; assay: sandwich ELISA in serum; M1.3.17-Bi capture on SA plate; tracer anti-human kappa M1.7.10-Dig; analyte 10 ng/mL
[9] = molecular target: anti-VEGF/ANG2 antibody (IgG1 subclass with mutations P329G/L234A/L235A/I253A/H310A/H435A) [IgG part: P01857]; assay: bridging ELISA; biotinylated and digoxigenylated anti-VEGF/ANG2 antibody bridged by M1.3.17 at 0 ng/mL (blank)
[10] = molecular target: anti-VEGF/ANG2 antibody (IgG1 subclass with mutations P329G/L234A/L235A/I253A/H310A/H435A) (human) [IgG part: P01857]; assay: sandwich ELISA in serum; M1.3.17-Bi capture on SA plate; tracer anti-human kappa M1.7.10-Dig; analyte 2.5 ng/mL
[11] = molecular target: anti-VEGF/ANG2 antibody (IgG1 subclass with mutations P329G/L234A/L235A/I253A/H310A/H435A) (human) [IgG part: P01857]; assay: sandwich ELISA in serum; M1.3.17-Bi capture on SA plate; tracer anti-human kappa M1.7.10-Dig; analyte 0.625 ng/mL
[12] = molecular target: anti-VEGF/ANG2 antibody (IgG1 subclass with mutations P329G/L234A/L235A/I253A/H310A/H435A) (human) [IgG part: P01857]; assay: sandwich ELISA in serum; M1.3.17-Bi capture on SA plate; tracer anti-human kappa M1.7.10-Dig; analyte 0.15625 ng/mL
[13] = molecular target: cytokine (IL-2) antibody conjugate with the mutations P329G, L234A, L235A, I253A, H310A, and H435A; assay: sandwich ELISA in serum; capture anti-IL2 antibody, tracer M1.7.24; conjugate 625 ng/mL
[14] = molecular target: cytokine (IL-2) antibody conjugate with the mutations P329G, L234A, L235A, I253A, H310A, and H435A; assay: sandwich ELISA in serum; capture anti-IL2 antibody, tracer M1.7.24; conjugate 0 ng/mL (blank)
[15] = molecular target: anti-VEGF/ANG2 antibody (IgG1 subclass with mutations P329G/L234A/L235A/I253A/H310A/H435A) [IgG part: P01857]; assay: sandwich ELISA in serum; capture M1.7.10-Bi, tracer M1.7.24-Dig; anti-VEGF/ANG2 antibody 5 ng/mL
[16] = molecular target: anti-VEGF/ANG2 antibody (IgG1 subclass with mutations P329G/L234A/L235A/I253A/H310A/H435A) [IgG part: P01857]; assay: sandwich ELISA in serum; capture M1.7.10-Bi, tracer M1.7.24-Dig; anti-VEGF/ANG2 antibody 10 ng/mL
[17] = molecular target: anti-VEGF/ANG2 antibody (IgG1 subclass with mutations P329G/L234A/L235A/I253A/H310A/H435A) [IgG part: P01857]; assay: sandwich ELISA in serum; capture M1.7.10-Bi, tracer M1.7.24-Dig; anti-VEGF/ANG2 antibody 2.5 ng/mL
[18] = molecular target: anti-VEGF/ANG2 antibody (IgG1 subclass with mutations P329G/L234A/L235A/I253A/H310A/H435A) [IgG part: P01857]; assay: sandwich ELISA in serum; capture M1.7.10-Bi, tracer M1.7.24-Dig; anti-VEGF/ANG2 antibody 0.3125 ng/mL
[19] = molecular target: anti-VEGF/ANG2 antibody (IgG1 subclass with mutations P329G/L234A/L235A/I253A/H310A/H435A) [IgG part: P01857]; assay: sandwich ELISA in serum; capture M1.7.10-Bi, tracer M1.7.24-Dig; anti-VEGF/ANG2 antibody 0.078125 ng/mL
[20] = molecular target: anti-VEGF/ANG2 antibody (IgG1 subclass with mutations P329G/L234A/L235A/I253A/H310A/H435A) [IgG part: P01857]; assay: sandwich ELISA in serum; capture M1.7.10-Bi, tracer M1.7.24-Dig; anti-VEGF/ANG2 antibody 0.01953125 ng/mL

| signal [OD405 nm] [1] | signal [OD405 nm] [2] | signal [OD405 nm] [3] | signal [OD405 nm] [4] | signal [OD405 nm] [5] | signal [OD405 nm] [6] | signal [OD405 nm] [7] | signal [OD405 nm] [8] | signal [OD405 nm] [9] | signal [OD405 nm] [10] | signal [OD405 nm] [11] | signal [OD405 nm] [12] | signal [OD405 nm] [13] | signal [OD405 nm] [14] | signal [OD405 nm] [15] | signal [OD405 nm] [16] | signal [OD405 nm] [17] | signal [OD405 nm] [18] | signal [OD405 nm] [19] | signal [OD405 nm] [20] | Binder |
| --- | --- | --- | --- | --- | --- | --- | --- | --- | --- | --- | --- | --- | --- | --- | --- | --- | --- | --- | --- | --- |
| 2.77 OD405 nm | 0.658 OD405 nm | 0.418 OD405 nm | 0.301 OD405 nm | 0.15 OD405 nm | 0.047 OD405 nm | 0.045 OD405 nm | 2.23 OD405 nm | 0.046 OD405 nm | 0.987 OD405 nm | 0.314 OD405 nm | 0.107 OD405 nm | – | – | – | – | – | – | – | – | anti-variant (human) Fc-region antibody M1.3.17 (antibody, V domains shown) VH: EVKLLESGGGLVQPGGSLKLSCAASGIDFRRYWMNWVRQAPGKGLEWIGEIDPDSSTINYTPSLKDKFIISRDNAKNTMYLQMRKVRSEDTALYYCARPYDYGAWFAYWGQGTLVTVSA VL: QAVVTQESALTTSPGETVTLTCRSTTGAVTTSNYANWVQEKPDHLFTGLIGGTNKRAPGVPARFSGSLIGDKAALTITGAQTEDEAIYFCALWYSDHWVFGGGTKLTVL |
| – | – | – | – | – | – | – | – | – | – | – | – | 0.811 OD405 nm | 0.0475 OD405 nm | 2.17 OD405 nm | 2.76 OD405 nm | 1.44 OD405 nm | 0.261 OD405 nm | 0.096 OD405 nm | 0.057 OD405 nm | anti-variant (human) Fc-region antibody M1.7.24 (antibody, V domains shown) VH: EVKLLESGGGLVQPGGSLKLSCAASGFDFSRYWMNWVRQAPGKGLEWIGEITPDSSTINYTPSLKDKFIISRDNAKNTLYLQMIKVRSEDTALYYCVRPYDYGAWFASWGQGTLVTVSA VL: QAVVTQESALTTSPGETVTLTCRSSTGAVTTSNYANWVQEKPDHLFTGLIGGTNKRAPGVPARFSGSLIGDKAALTITGAQTEDEAIYFCALWYSNHWVFGGGTKLTVL |
